Assay results published in the supplement of paper PMC12667976.
± gives the standard error.

B1: library; numbered along this chain (parent)
chain: MATDAALRRLLRLHRTEIAVAVDSAFPLLHALADHDVVPEDKFQETLHLKEKEGCPQAFHALLSWLLTQDSTAILDFWRVLFKDYNLERYGRLQPILDSFPKDVDLSQPRKGRKPPAVPKALVPPPRLPTKRKASEEARAAAPAALTPRGTASPGSQLKAKPPKKPESSAEQQRLPLGNGIQTMSASVQRAVAMSSGDVPGARGAVEGILIQQVFESGGSKKCIQVGGEFYTPSKFEDSGSGKNKARSSSGPKPLVRAKGAQGAAPGGGEARLGQQGSVPAPLALPSDPQLHQKNEDECAVCRDGGELICCDGCPRAFHLACLSPPLREIPSGTWRCSSCLQATVQEVQPRAEEPRPQEPPVETPLPPGLRSAGEEVRGPPGEPLAGMDTTLVYKHLPAPPSAAPLPGLDSSALHPLLCVGPEGQQNLAPGARCGVCGDGTDVLRCTHCAAAFHWRCHFPAGTSRPGTGLRCRSCSGDVTPAPVEGVLAPSPARLAPGPAKDDTASHEPALHRDDLESLLSEHTFDGILQWAIQSMARPAAPFPS

Variants of: B1
Test: AIRE transcriptional activation functional score (insulin promoter-GFP; nonsense median 0, synonymous median 1) (normalised score); higher = higher AIRE activity (more reporter activation)
Conditions: with insulin promoter-GFP reporter in HEK293
Description: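 Deep mutational scan of full-length human AIRE (codon-optimized cDNA, DT-POPCode NNN libraries over three regions) integrated at a Bxb1 landing pad in HEK293 cells carrying an insulin core promoter-GFP reporter at a Flp-In site. Cells were sorted for the top 10% GFP about 14 days after transfection. Variant frequency log-ratios (select vs non-select, TileSeq) were rescaled so that the nonsense median is 0 and the synonymous median is 1, then averaged over biological replicates.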

Row | Variant | AIRE transcriptional activation functional score
1 | Q108R | 0.951 ± 0.67
2 | L175N | 0.295 ± 0.16
3 | G197C | 1.17 ± 0.069
4 | V188I | 1.01 ± 0.064
5 | V188T | 0.434 ± 0.28
6 | P27C | -0.00711 ± 0.11
7 | P27M | -0.268 ± 0.094
8 | A121M | 1.2 ± 0.16
9 | E45T | -0.232 ± 0.066
10 | V22D | -0.245 ± 0.35
11 | P381Y | 1.39 ± 0.44
12 | C475K | -0.353 ± 0.079
13 | A399P | 1.38 ± 0.31
14 | A134C | 1.35 ± 0.81
15 | Q212K | 1.04 ± 0.026
16 | L516W | 0.496 ± 0.029
17 | R465Y | 1.39 ± 0.062
18 | R465N | -1.1 ± 0.54
19 | R465M | 0.403 ± 0.26
20 | C457H | 0.798 ± 0.2
21 | S241Y | 1.12 ± 0.024

Row | Variant | AIRE transcriptional activation functional score
22 | Q349P | 0.847 ± 0.16
23 | S339N | 0.771 ± 0.44
24 | Q275T | 1.11 ± 0.33
25 | K395D | 0.353 ± 0.32
26 | K395Q | 1.35 ± 0.054
27 | S287K | 0.385 ± 0.1
28 | Q225W | 0.582 ± 0.095
29 | E423L | 1.28 ± 0.43
30 | P266C | 1.09 ± 0.19
31 | A191M | 0.662 ± 0.092
32 | K165V | 0.921 ± 0.66
33 | L495Y | 1.35 ± 0.12
34 | L495A | 1.42 ± 0.052
35 | D478I | 1.06 ± 0.083
36 | P544I | 1.16 ± 0.096
37 | P407S | 1.19 ± 0.18
38 | S239L | 1.31 ± 0.34
39 | S239C | 1.16 ± 0.37
40 | Q346E | 1.18 ± 0.093
41 | D304Y | 0.808 ± 0.47
42 | W531L | 0.702 ± 0.41

Row | Variant | AIRE transcriptional activation functional score
43 | A373F | 0.264 ± 0.082
44 | S464A | 0.955 ± 0.39
45 | I224R | 0.498 ± 0.24
46 | A321N | 1.06 ± 0.24
47 | D98Y | 0.0432 ± 1.2
48 | D98E | 0.0399 ± 0.17
49 | D98V | 0.341 ± 0.23
50 | C322L | 0.951 ± 0.12
51 | K83S | 0.122 ± 0.21
52 | T147Y | 0.76 ± 0.21
53 | A300H | 0.907 ± 0.31
54 | A450K | -0.531 ± 0.21
55 | A450C | 0.795 ± 0.2
56 | A505I | 1.09 ± 0.19
57 | A505S | 0.985 ± 0.31
58 | V479W | 1.09 ± 0.053
59 | R356C | 1.05 ± 0.071
60 | S64K | -0.37 ± 0.16
61 | S64E | -0.72 ± 0.23
62 | L146E | 0.882 ± 0.26
63 | L146V | 0.912 ± 0.45

Row | Variant | AIRE transcriptional activation functional score
64 | Q182P | 0.264 ± 0.28
65 | P39W | 0.403 ± 0.26
66 | F26M | -1 ± 0.31
67 | G313S | 0.974 ± 0.32
68 | L273K | 0.434 ± 0.14
69 | P542M | 1.3 ± 0.025
70 | V487C | 0.67 ± 0.29
71 | A170N | 1.2 ± 0.4
72 | A170W | 1.84 ± 0.11
73 | K222Q | 1.11 ± 0.21
74 | I309H | 0.916 ± 0.046
75 | I309L | 0.505 ± 0.26
76 | M388D | 0.8 ± 0.26
77 | Q172R | 1.46 ± 0.51
78 | R132Y | 0.288 ± 0.26
79 | R132K | 0.0662 ± 0.16
80 | L406S | 0.856 ± 0.18
81 | P95M | 1.41 ± 0.41
82 | C310A | 0.821 ± 0.23
83 | Y85V | 0.302 ± 0.21
84 | T151L | 0.905 ± 0.44
